The source of these data is paper PMC6353875, “The EZH2 SANT1 domain is a histone reader providing sensitivity to the modification state of the H4 tail” (Scientific Reports, 2019).

pKd: −log10 of the molar value.

The target of the experiment is EZH2 SRM-SANT1 (residues 141–251) (human) (UniProt Q15910). Description: NMR titration; 15N-HSQC spectra of 0.05–0.10 mM 15N-EZH2 SRM-SANT1 with increasing concentrations of histone peptide; 25 °C; Kd from normalized CSPs, one-site model accounting for ligand depletion, averaged over significantly perturbed residues.

By pKd is commonly meant −log10 of the Kd, conventionally taken in molar units.

Sequence of EZH2 SRM-SANT1 (residues 141–251) (human) (Q15910 141-251): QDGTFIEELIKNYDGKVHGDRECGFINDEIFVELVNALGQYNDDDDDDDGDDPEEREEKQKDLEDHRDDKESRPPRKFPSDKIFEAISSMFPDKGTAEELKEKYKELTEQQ

“unmodified histone H4 peptide (residues 1–21) (from UniProt P62805 2-22)” showed a negative logarithm of the Kd (pKd) of 3.52.
